These results are taken from US20220136002A1 (JACKSON LABORATORY, published 2022).

The target of this assay is T1, mouse FLT3 receptor (mouse, UniProt Q00342 28-1000).
T1 construct: whole, on cells; Endogenous receptor of the NSG host mouse, knocked out in the NSG Flt3null-Tg(Hu-FLT3L) line; also called CD135
T1 sequence (looked up): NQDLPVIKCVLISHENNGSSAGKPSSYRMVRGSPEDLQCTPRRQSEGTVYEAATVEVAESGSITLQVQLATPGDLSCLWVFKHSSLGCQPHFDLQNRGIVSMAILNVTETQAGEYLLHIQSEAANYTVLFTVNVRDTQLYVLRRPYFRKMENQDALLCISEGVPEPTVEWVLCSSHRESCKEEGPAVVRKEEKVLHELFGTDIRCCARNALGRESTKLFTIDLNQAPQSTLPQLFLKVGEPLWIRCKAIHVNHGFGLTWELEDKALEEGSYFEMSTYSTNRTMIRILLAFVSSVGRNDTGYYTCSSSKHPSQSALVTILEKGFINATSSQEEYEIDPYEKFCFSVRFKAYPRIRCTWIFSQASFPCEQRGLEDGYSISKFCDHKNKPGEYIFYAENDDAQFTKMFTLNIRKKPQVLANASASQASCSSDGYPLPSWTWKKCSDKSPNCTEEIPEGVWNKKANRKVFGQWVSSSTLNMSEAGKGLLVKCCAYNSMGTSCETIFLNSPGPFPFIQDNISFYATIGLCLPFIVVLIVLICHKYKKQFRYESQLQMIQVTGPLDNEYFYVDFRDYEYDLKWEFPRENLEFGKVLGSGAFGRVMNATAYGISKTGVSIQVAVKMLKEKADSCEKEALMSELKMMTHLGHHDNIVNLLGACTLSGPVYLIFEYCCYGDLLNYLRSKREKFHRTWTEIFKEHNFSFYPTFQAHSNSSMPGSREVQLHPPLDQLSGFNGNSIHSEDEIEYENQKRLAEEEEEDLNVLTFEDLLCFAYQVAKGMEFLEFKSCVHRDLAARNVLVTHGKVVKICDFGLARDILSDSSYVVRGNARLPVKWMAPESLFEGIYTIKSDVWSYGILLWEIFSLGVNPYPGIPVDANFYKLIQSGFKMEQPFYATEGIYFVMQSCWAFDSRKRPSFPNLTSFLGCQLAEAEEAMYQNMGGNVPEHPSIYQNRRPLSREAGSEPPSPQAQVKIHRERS
The assay is described as follows: no direct binding assay; inferred from in vivo mouse genetics (human FLT3L transgenic NSG mice with and without knock-out of mouse Flt3).

B1: human FLT3 ligand (FLT3L) (ligand, UniProt P49771 27-184, looked up)
chain: TQDCSFQHSPISSDFAVKIRELSDYLLQDYPVTVASNLQDEELCGGLWRLVLAQRWMERLKTVAGSKMQGLLERVNTEIHFVTKCAFQPPPSCLRFVQTNISRLLQETSEQLVALKPWITRQNFSRCLELQCQPDSSTLPPPWSPRPLEATAPTAPQP
notes: Expressed in vivo from a 13.8 kb genomic BAC fragment and circulating in mouse serum; also called Hu-FLT3L
Regarding B1, the binding result was “binds”.
